{"source": "patent US20250346895A1", "about": "“GENETIC SEQUENCE-CARBOHYDRATE CONJUGATES FOR ENHANCED LIVER- AND KIDNEY-SPECIFIC TARGETING” (University of Connecticut, priority 2022, published 2025)", "key": {"[1]": {"test_system": "HepG2 cells", "test": "In vitro cellular uptake in HepG2 cells", "format": "cell-based"}, "[2]": {"test": "Kidney-targeted delivery of full-length (22mer) anti-miR-21 PNA: biodistribution (IVIS, flow cytometry)", "format": "in vivo, C57BL/6J mice", "description": "FIG. 9 illustrates that LBAAc ligand efficiently delivered a 22mer long PNA sequence to the kidney. […] PNA 6 contains succinic acid (SA) at 5′ end for conjugation with LBA-lysine conjugate. Lysine (K) was added on the 3′ end of the PNA followed by fluorescent probe 5-carboxytetramethylrhodamine (TAM) of each PNA. 000 represents the trioxo-miniPEG linker. […] Radiant Efficiency for TAMRA fluorescence in the kidneys of C57BL6/J mice. Results are represented as mean of n=2 with standard error mean as the error bars.\nFull-length (22mer) PNA oligomers were designed and synthesized namely PNA 5, PNA 6 and LBAAc conjugate (PNA 6-LBAAc) to target miR-21 (FIG. 9A). PNA 6 was conjugated with LBAAc as described in FIG. 2A.\nBiodistribution evaluation of PNA 5 and PNA 6-LBAAc in C57BL/6J mice at a low subcutaneous dose of 1.5 mg/kg (1/10 molar equiv of short PNA 1&2): A lower dose biodistribution was chosen for a comprehensive validation of LBAAc for kidney targeting. […] (FIG. 9D). Results were confirmed by flow cytometry analysis of kidney cells. The kidney cells obtained after RBC lysis were fixed with 4% PFA and analyzed for TAMRA fluorescence. The histogram plots representing the TAMRA fluorescence from 4 and 24 h samples confirmed the elimination of PNA 5 and accumulation of PNA 6-LBAAc in the kidney cells (FIG. 9C). […] Possibly the Tmax for kidney accumulation of PNA 6-LBAAc is >4 h. Decisively, the higher concentration of PNA 6-LBAAc in the kidney at 24 h compared to 4 h time point against PNA 5 confirmed the kidney targeting and potential of the LBAAc ligand."}}, "data": [{"compound": "O=C(O)[C@H](O)[C@@H](O)[C@H](O[C@@H]1O[C@H](CO)[C@H](O)[C@H](O)[C@H]1O)[C@H](O)CO", "note": "[LBA, lactobionic acid]", "values": [{"measurement": "cellular uptake", "setting": "[1]", "result": "ASGPR mediated cellular uptake"}]}, {"compound": "CC(=O)OC[C@H]1O[C@@H](O[C@@H]([C@H](OC(C)=O)[C@@H](OC(C)=O)C(=O)NCCCC[C@H](NC(=O)[C@H](OC(C)=O)[C@@H](OC(C)=O)[C@H](O[C@@H]2O[C@H](COC(C)=O)[C@H](OC(C)=O)[C@H](OC(C)=O)[C@H]2OC(C)=O)[C@@H](COC(C)=O)OC(C)=O)C(=O)NCCCCCCNC(=O)CCC(=O)NCCOCCOCCOCC(=O)NCCN(CC(=O)NCCN(CC(=O)NCCN(CC(=O)NCCN(CC(=O)NCCN(CC(=O)NCCN(CC(=O)NCCN(CC(=O)NCCN(CC(=O)NCCN(CC(=O)NCCN(CC(=O)NCCN(CC(=O)NCCN(CC(=O)NCCN(CC(=O)NCCN(CC(=O)NCCN(CC(=O)NCCN(CC(=O)NCCN(CC(=O)NCCN(CC(=O)NCCN(CC(=O)NCCN(CC(=O)NCCN(CC(=O)NCCN(CC(=O)N[C@@H](CCCCNC(=O)COCCOCCOCCNC(=O)c2ccc(-c3c4ccc(=[N+](C)C)cc-4oc4cc(N(C)C)ccc34)c(C(=O)[O-])c2)C(N)=O)C(=O)Cn2cnc3c(N)ncnc32)C(=O)Cn2cc(C)c(=O)[nH]c2=O)C(=O)Cn2ccc(N)nc2=O)C(=O)Cn2cnc3c(=O)[nH]c(N)nc32)C(=O)Cn2cnc3c(N)ncnc32)C(=O)Cn2cnc3c(N)ncnc32)C(=O)Cn2cc(C)c(=O)[nH]c2=O)C(=O)Cn2cnc3c(N)ncnc32)C(=O)Cn2cnc3c(=O)[nH]c(N)nc32)C(=O)Cn2cc(C)c(=O)[nH]c2=O)C(=O)Cn2ccc(N)nc2=O)C(=O)Cn2cc(C)c(=O)[nH]c2=O)C(=O)Cn2cnc3c(=O)[nH]c(N)nc32)C(=O)Cn2cnc3c(N)ncnc32)C(=O)Cn2ccc(N)nc2=O)C(=O)Cn2cc(C)c(=O)[nH]c2=O)C(=O)Cn2cnc3c(N)ncnc32)C(=O)Cn2ccc(N)nc2=O)C(=O)Cn2cnc3c(N)ncnc32)C(=O)Cn2cnc3c(N)ncnc32)C(=O)Cn2ccc(N)nc2=O)C(=O)Cn2cc(C)c(=O)[nH]c2=O)[C@@H](COC(C)=O)OC(C)=O)[C@H](OC(C)=O)[C@@H](OC(C)=O)[C@H]1OC(C)=O", "note": "[PNA 6-LBAAc]", "values": [{"measurement": "organ distribution of TAMRA fluorescence signal (IVIS)", "setting": "[2]; 1.5 mg/kg subcutaneous", "result": "limited to the kidney only"}, {"measurement": "overall pharmacokinetics / biodistribution", "setting": "[2]; 1.5 mg/kg subcutaneous", "result": "slower biodistribution"}, {"measurement": "increase in kidney retention compared to unconjugated PNA 5", "setting": "[2]; 1.5 mg/kg subcutaneous, 24 h", "result": 4, "unit": "fold"}, {"measurement": "kidney concentration at 24 h", "setting": "[2]; 1.5 mg/kg subcutaneous, 24 h", "result": "concentration increased in the kidney"}, {"measurement": "TAMRA fluorescence in kidney cells (flow cytometry)", "setting": "[2]; 4 and 24 h samples", "result": "accumulation"}, {"measurement": "Tmax", "setting": "[2]; mouse, in vivo, sc, 1.5 mg/kg subcutaneous, read-out: Tmax for kidney accumulation", "result": "> 4", "unit": "h"}]}, {"compound": "tris N-acetylgalactosamine [tGalNAc, reference compound]", "values": [{"measurement": "cellular uptake", "setting": "[1]", "result": "ASGPR mediated cellular uptake"}]}]}
